Source: the Immune Epitope Database (IEDB)
Blank lines part the entries; values can stand above or below the sequence they belong to.

Columns and labels:
HLA-B*57:01 [1] = assay: IEDB peptide-MHC binding, purified MHC/competitive/radioactivity; filed as Kd, often an IC50 or EC50 that approximates it; ≥ and ≤ were set here for values at or beyond the usual limits of such assays
HLA-B*53:01 = assay: as above
HLA-B*58:01 [2] = assay: as above
HLA-B*40:01 [3] = assay: IEDB peptide-MHC binding, purified MHC/competitive/fluorescence; filed as Kd, often an IC50 or EC50 that approximates it; ≥ and ≤ were set here for values at or beyond the usual limits of such assays
HLA-B*15:01 [4] = assay: as above
HLA-B*08:01 = assay: IEDB peptide-MHC binding, purified MHC/competitive/fluorescence; ≥ and ≤ were set here for values at or beyond the usual limits of such assays
HLA-B*27:05 = assay: IEDB peptide-MHC binding, purified MHC/direct/fluorescence; filed as Kd, often an IC50 or EC50 that approximates it; ≥ and ≤ were set here for values at or beyond the usual limits of such assays
HLA-B*57:01 [5] = assay: as above
HLA-A*68:02 = assay: as above; details: source organism: Escherichia coli O157:H7
HLA-A*01:01 = assay: as above
HLA-B*40:01 [6] = assay: as above; details: source organism: Escherichia coli O157:H7
HLA-A*11:01 = assay: as above; details: source organism: Escherichia coli O157:H7
HLA-B*15:17 [7] = assay: as above
HLA-B*07:02 [8] = assay: as above
HLA-B*48:01 = assay: as above; details: source organism: Escherichia coli O157:H7
HLA-B*18:01 = assay: as above; details: source organism: Escherichia coli O157:H7
HLA-A*31:01 = assay: as above; details: source organism: Escherichia coli O157:H7
HLA-A*69:01 [9] = assay: as above; details: source organism: Escherichia coli O157:H7
HLA-B*58:01 [10] = assay: as above
HLA-A*02:01 [11] = assay: as above
HLA-B*35:01 [12] = assay: IEDB peptide-MHC binding, purified MHC/competitive/radioactivity; filed as Kd, often an IC50 or EC50 that approximates it; ≥ and ≤ were set here for values at or beyond the usual limits of such assays
HLA-A*24:02 [13] = assay: as above; details: source organism: Dengue virus 2 Jamaica/1409/1983
HLA-B*07:02 [14] = assay: IEDB peptide-MHC binding, purified MHC/competitive/fluorescence; filed as Kd, often an IC50 or EC50 that approximates it; ≥ and ≤ were set here for values at or beyond the usual limits of such assays
HLA-B*07:02 [15] = assay: IEDB peptide-MHC binding, purified MHC/competitive/fluorescence; ≥ and ≤ were set here for values at or beyond the usual limits of such assays
HLA-A*24:02 [16] = assay: as above
HLA-A*02:01 [17] = assay: as above
HLA-A*02:19 = assay: IEDB peptide-MHC binding, purified MHC/competitive/fluorescence; filed as Kd, often an IC50 or EC50 that approximates it; ≥ and ≤ were set here for values at or beyond the usual limits of such assays
HLA-A*69:01 [18] = assay: as above; details: source organism: Human immunodeficiency virus 1
HLA-A*02:01 [19] = assay: as above
HLA-A*29:02 [20] = assay: as above
HLA-A*02:03 = assay: as above; details: source organism: Human immunodeficiency virus 1
HLA-B*15:17 [21] = assay: as above; details: source organism: Human immunodeficiency virus 1
HLA-B*44:02 = assay: IEDB peptide-MHC binding, purified MHC/direct/fluorescence; filed as Kd, often an IC50 or EC50 that approximates it; ≥ and ≤ were set here for values at or beyond the usual limits of such assays; details: source organism: Escherichia coli O157:H7
HLA-B*46:01 = assay: as above; details: source organism: Escherichia coli O157:H7
HLA-A*03:01 = assay: as above
HLA-A*29:02 [22] = assay: as above; details: source organism: Escherichia coli O157:H7
HLA-B*51:01 = assay: IEDB peptide-MHC binding, purified MHC/competitive/fluorescence; filed as Kd, often an IC50 or EC50 that approximates it; ≥ and ≤ were set here for values at or beyond the usual limits of such assays; details: source organism: Bacillus anthracis str. A2012
HLA-B*35:01 [23] = assay: as above; details: source organism: Bacillus anthracis str. A2012
HLA-B*15:01 [24] = assay: IEDB peptide-MHC binding, purified MHC/direct/fluorescence; filed as Kd, often an IC50 or EC50 that approximates it; ≥ and ≤ were set here for values at or beyond the usual limits of such assays; details: source organism: Bacillus anthracis
HLA-A*32:01 = assay: IEDB peptide-MHC binding, purified MHC/competitive/radioactivity; filed as Kd, often an IC50 or EC50 that approximates it; ≥ and ≤ were set here for values at or beyond the usual limits of such assays; details: source organism: Dengue virus 3 Martinique/1243/1999
HLA-B*15:01 [25] = assay: IEDB peptide-MHC binding, purified MHC/competitive/fluorescence; ≥ and ≤ were set here for values at or beyond the usual limits of such assays; details: source organism: Zaire ebolavirus
HLA-A*02:12 = assay: IEDB peptide-MHC binding, purified MHC/competitive/fluorescence; filed as Kd, often an IC50 or EC50 that approximates it; ≥ and ≤ were set here for values at or beyond the usual limits of such assays; details: source organism: Francisella tularensis subsp. holarctica OSU18
[26] = source organism: Dengue virus 3 Martinique/1243/1999
[27] = source organism: Escherichia coli O157:H7 str. EDL933
[28] = source organism: Zaire ebolavirus
[29] = source organism: Yersinia pestis CO92
[30] = source organism: Escherichia coli O157:H7
[31] = source organism: Dengue virus 2 Jamaica/1409/1983
[32] = source organism: Dengue virus 4 Philippines/H241/1956
[33] = source organism: Vaccinia virus WR
[34] = source organism: Human immunodeficiency virus 1
[35] = source organism: Bacillus anthracis str. A2012
[36] = source organism: Dengue virus 1 Brazil/97-11/1997
[37] = source organism: Sudan ebolavirus
[38] = source organism: Bacillus anthracis
[39] = source organism: Entamoeba histolytica HM-1:IMSS

Sequence: AAVEDEDFW
Kd (HLA-B*57:01 [1]; [26]): 1110 nM | Kd (HLA-B*53:01; [26]): 334 nM | Kd (HLA-B*58:01 [2]; [26]): 112 nM

Sequence: ASSGMLWMAE
Kd (HLA-B*57:01 [1]; [26]): ≥ 29300 nM | Kd (HLA-B*58:01 [2]; [26]): 2270 nM

Kd (HLA-B*40:01 [3]; [27]): 3210 nM | Kd (HLA-B*15:01 [4]; [27]): 265 nM
Sequence: FERGVINVF

Sequence: FEVKKRDGV
IC50 (HLA-B*08:01; [28]): ≥ 158 µM

Sequence: GELIFSHNL
Kd (HLA-B*40:01 [3]; [29]): 7 nM | Kd (HLA-B*15:01 [4]; [29]): 3150 nM

Kd (HLA-B*27:05; [30]): ≥ 20 µM | Kd (HLA-B*57:01 [5]; [30]): ≥ 20 µM | Kd (HLA-A*68:02): ≥ 20 µM | Kd (HLA-A*01:01; [30]): ≥ 20 µM | Kd (HLA-B*40:01 [6]): ≥ 20 µM | Kd (HLA-A*11:01): ≥ 20 µM | Kd (HLA-B*15:17 [7]; [30]): ≥ 20 µM | Kd (HLA-B*07:02 [8]; [30]): ≥ 20 µM | Kd (HLA-B*48:01): ≥ 20 µM | Kd (HLA-B*18:01): 193 nM | Kd (HLA-A*31:01): ≥ 20 µM | Kd (HLA-A*69:01 [9]): ≥ 20 µM | Kd (HLA-B*58:01 [10]; [30]): ≥ 20 µM | Kd (HLA-A*02:01 [11]; [30]): ≥ 20 µM
Sequence: HEVHAVWPG

Sequence: IAASIILEF
Kd (HLA-B*35:01 [12]; [31]): 22 nM | Kd (HLA-B*53:01; [31]): 26.1 nM | Kd (HLA-A*24:02 [13]): 475 nM | Kd (HLA-B*58:01 [2]; [31]): 7.03 nM

Sequence: IAVSTANIF
Kd (HLA-B*57:01 [1]; [32]): 407 nM | Kd (HLA-B*35:01 [12]; [32]): 151 nM

Sequence: KTRTNDWDF
Kd (HLA-B*57:01 [1]; source organism: Dengue virus 2 Peru/IQT2913/1996): 6.54 nM

Sequence: KTSIGLICVI
Kd (HLA-B*57:01 [1]; [26]): 213 nM

Sequence: LPFERATV
Kd (HLA-B*07:02 [14]; source organism: Influenza A virus (A/swine/Italy/2/1979(H1N1))): 10.5 nM

Sequence: LPWTKISET
IC50 (HLA-B*08:01; [33]): ≥ 86.8 µM | IC50 (HLA-B*07:02 [15]; [33]): ≥ 81.6 µM | IC50 (HLA-A*24:02 [16]; [33]): 66.7 µM | IC50 (HLA-A*02:01 [17]; [33]): ≥ 405 µM

Sequence: LTFGWCFKL
Kd (HLA-A*02:19; [34]): 755 nM | Kd (HLA-A*69:01 [18]): 46.5 nM | Kd (HLA-A*02:01 [19]; [34]): 152 nM

Sequence: LWNPYEWYQ
Kd (HLA-A*29:02 [20]; [35]): 520 nM

Sequence: LYNTVATLY
Kd (HLA-A*02:03): 570 nM | Kd (HLA-B*15:17 [21]): ≥ 20 µM | Kd (HLA-A*02:01 [19]; [34]): 1160 nM

Kd (HLA-B*44:02): ≥ 20 µM | Kd (HLA-B*27:05; [30]): ≥ 20 µM | Kd (HLA-B*57:01 [5]; [30]): ≥ 20 µM | Kd (HLA-B*46:01): ≥ 20 µM | Kd (HLA-A*01:01; [30]): ≥ 20 µM | Kd (HLA-A*03:01; [30]): ≥ 20 µM | Kd (HLA-B*40:01 [6]): ≥ 20 µM | Kd (HLA-A*11:01): ≥ 20 µM | Kd (HLA-B*48:01): ≥ 20 µM | Kd (HLA-B*18:01): ≥ 20000 nM | Kd (HLA-A*69:01 [9]): ≥ 20 µM | Kd (HLA-A*29:02 [22]): ≥ 20 µM | Kd (HLA-B*58:01 [10]; [30]): ≥ 20 µM
Sequence: MLKLRQARL

Sequence: MNHKNKFMA
IC50 (HLA-B*08:01; [28]): 19.9 µM | IC50 (HLA-A*02:01 [17]; [28]): ≥ 143 µM

Sequence: MPLKKQILF
Kd (HLA-B*51:01): 130 nM | Kd (HLA-B*35:01 [23]): ≤ 0.1 nM | Kd (HLA-B*07:02 [14]; [35]): 279 nM

Sequence: MSSEGAWKQI
Kd (HLA-B*57:01 [1]; [36]): 231 nM | Kd (HLA-B*58:01 [2]; [36]): 786 nM

Sequence: RLDRPHTPQ
IC50 (HLA-B*07:02 [15]; [37]): 28.5 µM | IC50 (HLA-A*02:01 [17]; [37]): ≥ 88.5 µM

Sequence: RTIQGQRFW
Kd (HLA-B*27:05; [38]): ≥ 20 µM | Kd (HLA-B*57:01 [5]; [38]): ≥ 20 µM | Kd (HLA-A*01:01; [38]): ≥ 20 µM | Kd (HLA-A*03:01; [38]): ≥ 20 µM | Kd (HLA-B*15:01 [24]): ≥ 20 µM | Kd (HLA-B*15:17 [7]; [38]): ≥ 20 µM | Kd (HLA-B*07:02 [8]; [38]): ≥ 20 µM | Kd (HLA-B*58:01 [10]; [38]): ≥ 20 µM | Kd (HLA-A*02:01 [11]; [38]): ≥ 20 µM

Sequence: RVWIEDNPW
Kd (HLA-B*57:01 [1]; [26]): 49.6 nM | Kd (HLA-B*58:01 [2]; [26]): 2.11 nM | Kd (HLA-A*32:01): 71.9 nM

Sequence: SLFLPKLVV
IC50 (HLA-B*08:01; [28]): ≥ 293 µM | IC50 (HLA-A*24:02 [16]; [28]): 45.4 µM | IC50 (HLA-A*02:01 [17]; [28]): 0.2 µM

Sequence: SMFYGIFPS
Kd (HLA-A*02:19; [39]): 285 nM | Kd (HLA-A*02:01 [19]; [39]): 0.2 nM

Sequence: SVGHMMVIF
IC50 (HLA-B*15:01 [25]): 10.5 µM | IC50 (HLA-B*07:02 [15]; [28]): ≥ 277 µM | IC50 (HLA-A*24:02 [16]; [28]): 2.41 µM | IC50 (HLA-A*02:01 [17]; [28]): 18.6 µM

Sequence: SVYSWAIML
Kd (HLA-A*02:12): 2320 nM | Kd (HLA-A*02:01 [19]; source organism: Francisella tularensis subsp. holarctica OSU18): 17.5 nM

Sequence: TVEGIGHHY
Kd (HLA-A*29:02 [20]; source organism: Shigella sonnei Ss046): 36 nM

Sequence: VPKLLLWFN
IC50 (HLA-B*07:02 [15]; source organism: Variola virus): ≥ 810 µM | IC50 (HLA-A*24:02 [16]; source organism: Variola virus): 9.71 µM

Sequence: WMSSEGAWKQ
Kd (HLA-B*58:01 [2]; [36]): 7760 nM

Sequence: YETLVGLAI
Kd (HLA-B*40:01 [3]; source organism: Salmonella enterica subsp. enterica serovar Typhi): 4 nM

Sequence: YRHILRSQG
IC50 (HLA-B*08:01; [28]): ≥ 171 µM
